According to publication PMC6937246:

Columns and labels:
purified tubulin dimer [1] = assay: SPR
purified tubulin dimer [2] = assay: SPR; VASH1 K168E/C169S; settings: complex
purified tubulin dimer [3] = assay: SPR; VASH1 R222A/C169S; settings: complex

VASH1-SVBP complex, VASH1 mutated at R222, sequence (Q7L8A9 44-315, change not shown): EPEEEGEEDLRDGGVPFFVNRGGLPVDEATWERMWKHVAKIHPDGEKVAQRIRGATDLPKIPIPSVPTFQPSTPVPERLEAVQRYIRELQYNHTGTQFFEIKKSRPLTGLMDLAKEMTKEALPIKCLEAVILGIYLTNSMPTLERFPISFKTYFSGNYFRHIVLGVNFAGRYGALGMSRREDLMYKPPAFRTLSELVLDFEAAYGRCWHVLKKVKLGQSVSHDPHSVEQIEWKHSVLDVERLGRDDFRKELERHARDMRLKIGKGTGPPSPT
VASH1-SVBP complex, VASH1 mutated at R222, sequence (Q8N300 whole entry, change not shown): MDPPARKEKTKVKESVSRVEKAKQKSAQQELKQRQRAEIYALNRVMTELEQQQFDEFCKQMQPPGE
VASH1-SVBP complex, VASH1 mutated at K168, sequence (Q7L8A9 44-315, change not shown): as the sequence (Q7L8A9 44-315, change not shown) above
VASH1-SVBP complex, VASH1 mutated at K168, sequence (Q8N300 whole entry, change not shown): as the sequence (Q8N300 whole entry, change not shown) above

Substance | Kd (purified tubulin dimer [1]) [nM] | other results
VASH1 C169A-SVBP | 990 | –
VASH1 C169S-SVBP | 470 | –
VASH1 H204A/C169S-SVBP | 750 | –
VASH1 R222E/R223E/C169S-SVBP | 1310 | –
VASH1 S221A/C169S-SVBP | 570 | –
VASH1-SVBP complex, VASH1 mutated at K168 (from UniProt Q7L8A9 44-315; Q8N300 1-66) | – | Kd (purified tubulin dimer [2]): 1140 nM
VASH1-SVBP complex, VASH1 mutated at R222 (from UniProt Q7L8A9 44-315; Q8N300 1-66) | – | Kd (purified tubulin dimer [3]): 1400 nM
